Test results: article PMC2597023 (Journal of cellular biochemistry, 2008)

Biological target: full-length human IGFN1 with an N-terminal c-myc tag (human, UniProt Q86VF2-2 1-868)
Assay: co-IP

B1: endogenous eEF1A1 of mouse C2C12 myoblasts (natural protein, mouse (endogenous in C2C12), UniProt P10126 1-462, looked up)
chain: MGKEKTHINIVVIGHVDSGKSTTTGHLIYKCGGIDKRTIEKFEKEAAEMGKGSFKYAWVLDKLKAERERGITIDISLWKFETSKYYVTIIDAPGHRDFIKNMITGTSQADCAVLIVAAGVGEFEAGISKNGQTREHALLAYTLGVKQLIVGVNKMDSTEPPYSQKRYEEIVKEVSTYIKKIGYNPDTVAFVPISGWNGDNMLEPSANMPWFKGWKVTRKDGSASGTTLLEALDCILPPTRPTDKPLRLPLQDVYKIGGIGTVPVGRVETGVLKPGMVVTFAPVNVTTEVKSVEMHHEALSEALPGDNVGFNVKNVSVKDVRRGNVAGDSKNDPPMEAAGFTAQVIILNHPGQISAGYAPVLDCHTAHIACKFAELKEKIDRRSGKKLEDGPKFLKSGDAAIVDMVPGKPMCVESFSDYPPLGRFAVRDMRQTVAVGVIKAVDKKAAGAGKVTKSAQKAQKAK
fold of eEF1A1 immunoprecipitated against cells with the empty pCMV-myc vector: ~4 fold
